Results taken from US20240029824A1 (University of Washington, published 2024).
Positions count from the first letter of the chain named.

B1: DHT01-4arm-01 chain A (designed binder)
chain: DEEEKLRESLEEQKKRVKEIEREHEEIREALKRLQQSVLRQAVRLAKLGDDSEMINRIVKDLAEQAKEATDKREVIKIVKALAELAKNSTDSELVNEIVKQLAEVAKEATDKELVIYIVKILAELAKQSTDSELVNEIVKQLEEVAKEATDKELVEHIEKILEELKKQSTD
notes: also called DHT01-4arm-02 chain A
B2: DHT01-4arm-02 chain B (designed binder)
chain: MSSDEEEARELIERAKEAAERAQEAAERTGDPRVRELARELKRLAQEAAEEVKRDPSSSDVNEALKLIVEAIEAAVRALEAAERTGDPEVRELARELVRLAVEAAEEVQRNPSSSDVNRALKLIVRAIEAAVQLLEHAEKSGDPEVRELARELVRRLVEAAEEVQRNPSDEQKNTQLRRLIAKAEVWLLNEEFKEAEKRFRKLQEETKKALEEVEELNQRFEEALEEVERIKRRQK
notes: Strep-tag II was added to the N-terminus of chain B of DHT01 arms; also called C2-DHT01-04 chain B
B3: DHT05_2arm_A62/B14/C chain B (designed binder)
chain: SEVEKRLLEIHREVAESHRILVEVHEALIEALRGNSEEAKEKLKELVKKLEKIIKEEEELLKKLEKIVVQALAKAAKQATDSRQVNEIVKQLAEIAKEATDKRLVIEIVKILAELAKQSTDSELVNEIVKQLAEVAKEATDKELVIYIVKILAELAKQSTDSELVNEIVKQLEEVAKEATDKELVEHIEKILEELKKQSTD
B4: DHT05_3arm_A62/B71/C62 chain A (designed binder)
chain: NDEKRKRAEKALQRAQEAEKKGDVEEAVRAAQEAVRAAKESGDNDVLRKVAEQALRIAEEAEKQGNVEVAVKAARVAVEAAKQAGDNDVLRKVAEQALRIAEEAEKQGNVKVAADAVEVAVEAATQAGDQDVLRKASEQAKKVAKEAKKKGDHKVAVKATTLAVKAEFAAIQEEIKKLEEEAKKAEKGNGKEEIKELLLELSELLARSLQLLAQQIEAIAKLIRG
B5: DHT05_2arm_A62/B14(2)-LHD101B14/C chain B (designed binder)
chain: SETEKRLLEIHRRVAESHRILVEVHEALIEALRGNSEEAKEKLKELVKKLEKIIREEEKLTVELAAKVAKSADDSEKVNEIVKTLAEIAKEATDKEQVIRIVKILAELAKQSTDSELVNEIVKQLAEVAKEATDKELVIYIVDILLKLAEQADDDELVEEIRKQLEEVAKEATDKELVEIIKAVIVLLVIISVVARMGVTMEIHKSGREVKVVIKGLHESQQEQLLEAVLRAAEEAGVRVRIRFKGDTVTIVVRG
B6: C2-DHT01-04 chain A (designed binder)
chain: DEEEKLRESLEEQKKRVKEIEREHEEIREALKRLQQSVLRQAVRLAKLGDDSEMINRIVKDLAEQAKEATDKREVIKIVKALAELAKNSTDRELINEIAKQLAEVAKEATDEELQRYIAKILIELAEQAIKEAERSLREGNPEKAREDVRLALELVRLLLEIAQALNLLEVLEEAARLAFEVARVAKEVGSPETARQARETAERLLEWAMKMIEEKAKKEKDRNDQSSDVNEAAKLIREAAEAAQRAREAASRTGDPEVKDLAWRMVEAALKAAAVVATNPSDEEANEMLKQIVKLAQQAVEMLREAEESGDPEKREKAKQTVEQAIREAELLLLIWEWKRLRERLQELEEQHRELQEELKELREKWKRLKERLERLRLELRLEEMARRARNATDSEQINEIVKQLAEIAKEATDKRAVIKIVKILAELAKKSTDSELVNEIVKQLAEVAKEATDKELVIYIVKILAELAKQSTDSELVNEIVKQLEEVAKEATDKELVEHIEKILEELKKQSTD
notes: two copies in the A2B2 ring
B7: C3-DHT03-01 chain A (designed binder)
chain: TTNFHLINGSEEARQLIQKAVEAISKKEGTEVHFEKSDGTLEIRVKNLHPRQEDLIKKFIEALLLALVAKGELEQAEKEGDAEVALRAVEKVVRVAELLLRLAKEAGSEEALKAALEIAEQAARLAKRVLELAEKQGDAEVALKAVLLVVIVAALLVKIAKESGSEEAKERATRVAREASRLADRVEELARKQNNEDVTLAAKVLKLAADIIAQLMNTELAEEAAQLATEALKATDREQLEVVRLALEIVQLAPDTRLARAALKLAKEAVKSTDQEELKKVKAILRVASEVLKLEEEAKKSQEEVERLKQEVEKASKAGLDHEGDSRIFKKIHDVVTKQIKVILRLIAVYAELVAIIG
notes: three copies in the A3B3C3 ring; also called C3-DHT03-01-DHR82 chain A

Key:
DHT01-4arm-01 chain B = molecular target: T1, DHT01-4arm-01 chain B; test: co-expression, pull-downs, SEC, native MS, SAXS; chains of one ABC heterotrimer
T1 construct: Strep-tag II was added to the N-terminus of chain B of DHT01 arms
T1 chain: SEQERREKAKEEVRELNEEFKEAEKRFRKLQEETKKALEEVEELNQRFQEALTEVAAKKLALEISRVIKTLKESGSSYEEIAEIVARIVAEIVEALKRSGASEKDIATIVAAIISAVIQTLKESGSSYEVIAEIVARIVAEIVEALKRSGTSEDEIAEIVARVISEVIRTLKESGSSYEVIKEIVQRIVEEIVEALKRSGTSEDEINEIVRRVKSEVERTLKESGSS

DHT01-4arm-01 chain C [1] = molecular target: T2, DHT01-4arm-01 chain C; test: as above
T2 construct: also called DHT01-4arm-02 chain C; C2-DHT01-01 chain B
T2 chain: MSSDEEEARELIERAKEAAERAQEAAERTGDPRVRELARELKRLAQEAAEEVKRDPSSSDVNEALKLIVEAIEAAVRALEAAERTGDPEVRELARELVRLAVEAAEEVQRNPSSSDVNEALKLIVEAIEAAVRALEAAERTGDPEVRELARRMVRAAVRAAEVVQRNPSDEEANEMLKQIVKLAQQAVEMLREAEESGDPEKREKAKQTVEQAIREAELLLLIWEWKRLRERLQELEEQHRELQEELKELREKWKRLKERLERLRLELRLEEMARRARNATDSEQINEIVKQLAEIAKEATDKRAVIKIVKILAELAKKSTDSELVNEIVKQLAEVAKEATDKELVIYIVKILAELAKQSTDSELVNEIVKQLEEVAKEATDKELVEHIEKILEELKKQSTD

DHT01-4arm-02 chain B [2] = molecular target: B2; test: SEC and SDS-PAGE; chains of one ABC heterotrimer
DHT01-4arm-01 chain C [3] = molecular target: T2, DHT01-4arm-01 chain C; test: SEC and SDS-PAGE; chains of one ABC heterotrimer
[4] = molecular target: T3, DHT05 chain C (SEQ ID NO: 95); test: SEC and SAXS; chains of one ABC heterotrimer
T3 chain: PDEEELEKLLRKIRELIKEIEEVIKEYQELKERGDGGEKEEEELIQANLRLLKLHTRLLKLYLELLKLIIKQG

[5] = molecular target: T4, DHT05_3arm_A62/B71/C62 chain B; test: SEC and SAXS; chains of one ABC heterotrimer
T4 chain: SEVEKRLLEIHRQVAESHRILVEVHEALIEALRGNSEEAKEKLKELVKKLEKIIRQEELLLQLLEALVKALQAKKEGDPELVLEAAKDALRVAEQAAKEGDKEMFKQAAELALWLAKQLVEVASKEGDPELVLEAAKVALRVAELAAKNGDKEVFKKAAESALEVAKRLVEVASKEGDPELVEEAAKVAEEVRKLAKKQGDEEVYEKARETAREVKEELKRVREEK

[6] = molecular target: T5, DHT05_3arm_A62/B71/C62 chain C; test: SEC and SAXS; chains of one ABC heterotrimer
T5 chain: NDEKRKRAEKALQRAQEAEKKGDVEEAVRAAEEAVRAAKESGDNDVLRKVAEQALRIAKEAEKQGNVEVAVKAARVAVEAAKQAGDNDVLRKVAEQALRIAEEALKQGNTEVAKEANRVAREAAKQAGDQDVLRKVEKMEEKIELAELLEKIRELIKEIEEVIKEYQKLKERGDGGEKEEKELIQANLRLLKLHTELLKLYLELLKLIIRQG

[7] = molecular target: T6, DHT05 chain C (SEQ ID NO: 98); test: co-expression, SEC, SAXS; chains of one ABC heterotrimer
T6 chain: T3 chain with E42K, R57E

DHT01-4arm-02 chain B [8] = molecular target: B2; test: bicistronic expression, SAXS, negative stain EM; A2B2 ring
[9] = molecular target: T7, DHT03 chain C (SEQ ID NO: 59); test: chains mixed and annealed, SEC, negative stain EM; A3B3C3 ring
T7 chain: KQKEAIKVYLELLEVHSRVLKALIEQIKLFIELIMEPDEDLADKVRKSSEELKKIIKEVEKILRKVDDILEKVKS

C3-DHT03-01 chain B = molecular target: T8, C3-DHT03-01 chain B; test: as above
T8 construct: three copies in the A3B3C3 ring; also called C3-DHT03-01-DHR82 chain B
T8 chain: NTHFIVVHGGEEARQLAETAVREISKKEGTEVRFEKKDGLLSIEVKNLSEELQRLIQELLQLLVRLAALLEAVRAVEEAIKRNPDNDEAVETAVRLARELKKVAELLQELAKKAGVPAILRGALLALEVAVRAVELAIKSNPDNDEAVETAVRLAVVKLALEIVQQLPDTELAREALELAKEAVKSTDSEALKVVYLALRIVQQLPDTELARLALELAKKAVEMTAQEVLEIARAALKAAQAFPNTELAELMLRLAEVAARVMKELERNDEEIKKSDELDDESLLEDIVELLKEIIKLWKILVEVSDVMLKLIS

[10] = molecular target: T9, DHT03_3arm_A21/B21/C82 chain C; test: three components purified separately, mixed equimolar, heat annealed, SEC, negative stain EM
T9 construct: also called chain C DHR82 fusion; chain C of C3-DHT03-01-DHR82 and C4-DHT03-01-DHR82
T9 chain: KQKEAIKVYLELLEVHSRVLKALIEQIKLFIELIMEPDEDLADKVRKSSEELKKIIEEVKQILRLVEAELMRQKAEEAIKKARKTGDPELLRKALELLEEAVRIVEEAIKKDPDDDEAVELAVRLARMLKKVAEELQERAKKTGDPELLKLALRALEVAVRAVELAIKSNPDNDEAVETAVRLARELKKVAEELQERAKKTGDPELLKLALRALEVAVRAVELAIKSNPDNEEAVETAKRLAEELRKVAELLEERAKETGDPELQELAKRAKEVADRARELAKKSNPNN
Description: As is evident from the images in FIGS. 4c and 4d, the cyclic structures retain one of the original heterotrimer helical hairpins in each corner; these short, outward facing protein chains provide fusion points for further elaboration of higher order symmetric assemblies. To evaluate the potential for building up larger nanostructures using the rings as hubs, and explore the modularity of the designed building blocks, we replaced the original outward facing chain C helical hairpin with the chain C DHR82 fusion (as it was the largest 4-repeat DHR) from FIG. 3d, row 8. This was done for two designs (C3-DHT03-01 and C4-DHT03-01), with chain C replaced by fusion C82 through expressing and purifying the three components separately, mixing them in equal molar quantities, and reconstituting using heat annealing.
An AKTA PURE FPLC system was used. Heterotrimer bases, arm extensions, coiled coil C2 rings, and all constructs mentioned in SI were passed through a Cytvia Superdex S200 Increase 10/300 GL column, while C3/C4 rings made from DHT03 were passed through a Cytvia Superdex S6 Increase 10/300 GL column. The mobile phase was TBS (25 mM Tris-HCl pH 8.0, 100 mM NaCl or 25 mM Tris-HCl pH 8.0, 150 mM NaCl). Samples ran at a flow rate of 0.75 ml/min and fractions were collected at 0.5 ml.

Binder: B1
- binding result (DHT01-4arm-01 chain B): binds
- binding result (DHT01-4arm-01 chain C [1]): binds
- binding result (DHT01-4arm-02 chain B [2]): binds

Binder: B2
- binding result (DHT01-4arm-01 chain C [3]): binds

Binder: B3
- binding result [4]: binds

Binder: B4
- binding result [5]: binds
- binding result [6]: binds

Binder: B5
- binding result [7]: binds

Binder: B6
- binding result (DHT01-4arm-02 chain B [8]): binds

Binder: B7
- binding result [9]: binds
- binding result (C3-DHT03-01 chain B): binds
- binding result [10]: binds
